# Assay results reported in US11453711B2, “Fusion proteins of GLP-1 and GDF15 and conjugates thereof” (BEIJING QL BIOPHARMACEUTICAL CO., LTD., priority 2019, dated 2022).
# Positions count from the first letter of the chain named.
# B1: MLC017: fusion polypeptide SEQ ID NO: 264 conjugated with Moiety A at 55K of Linker (conjugate)
# chain: HGEGTFTSDVSSYLEEQAAREFIAWLVRGGGGQEPGAQPGQEPGAQPGQEPGAQPGQEPGAQPGQEPGAQPGQEPGAQPGAQPGAKPGAQPGAQPGAQPGAQPGAQPGAQPARQGDHCPLGPGRCCRLHTVRASLEDLGWADWVLSPREVQVTMCIGACPSQFRAANLHAQIKTSLHRLRPDTVPAPCCVPASYNPMVLIQRTDTGVSLQTYDDLLARDCHCI
# modifications: Moiety A conjugated at linker K55
# B2: MLC074: fusion polypeptide SEQ ID NO: 369 conjugated with Moiety B at 41C of Linker (conjugate)
# chain: B1 chain with R20K, G72C, K86Q, R180K, R202K, R218K
# modifications: Moiety B conjugated at linker C41
# B3: MLC075: fusion polypeptide SEQ ID NO: 369 conjugated with Moiety C at 41C of Linker (conjugate)
# chain: B1 chain with R20K, G72C, K86Q, R180K, R202K, R218K
# modifications: Moiety C conjugated at linker C41
# B4: MLC091: fusion polypeptide SEQ ID NO: 380 conjugated with Moiety B at 35C of Linker (conjugate)
# chain: HGEGTFTSDVSSYLEEQAAKEFIAWLVRGGGGAQPGAQPGAQPGAQPGAQPGAQPGAQPGAQPGQCPGAQPGQEPGAQPGQEPGAQPGQEPGAQPGQEPGAQPGQEPGAQPARQGDHCPLGPGRCCRLHTVRASLEDLGWADWVLSPREVQVTMCIGACPSQFRAANLHAQIKTSLHRLKPDTVPAPCCVPASYNPMVLIQKTDTGVSLQTYDDLLAKDCHCI
# modifications: Moiety B conjugated at linker Cys35
# B5: MLC087: fusion polypeptide SEQ ID NO: 378 conjugated with Moiety B at 41C of Linker (conjugate)
# chain: B4 chain with C66E, G72C
# modifications: Moiety B conjugated at linker Cys41
# B6: MLC088: fusion polypeptide SEQ ID NO: 378 conjugated with Moiety C at 41C of Linker (conjugate)
# chain: B4 chain with C66E, G72C
# modifications: Moiety C conjugated at linker Cys41
# B7: MLC092: fusion polypeptide SEQ ID NO: 380 conjugated with Moiety C at 35C of Linker (conjugate)
# chain: B4 chain
# modifications: Moiety C conjugated at linker Cys35
# B8: MLC080: fusion polypeptide SEQ ID NO: 374 conjugated with Moiety B at 35C of Linker (conjugate)
# chain: B1 chain with R20K, E66C, A81Q, Q82E, K86Q, R180K, R202K, R218K
# modifications: Moiety B conjugated at linker C35
# B9: MLC084: fusion polypeptide SEQ ID NO: 376 conjugated with Moiety C at 39C of Linker (conjugate)
# chain: B1 chain with R20K, A69Q, Q70C, K86Q, R180K, R202K, R218K
# modifications: Moiety C conjugated at linker Cys39
# B10: MLC085: fusion polypeptide SEQ ID NO: 377 conjugated with Moiety B at 37C of Linker (conjugate)
# chain: B1 chain with R20K, G68C, A69Q, Q70A, K86Q, R180K, R202K, R218K
# modifications: Moiety B conjugated at linker Cys37
# B11: MLC104: fusion polypeptide SEQ ID NO: 391 conjugated with Moiety A at 76K of Linker (conjugate)
# chain: B1 chain with K86Q, P107K
# modifications: Moiety A conjugated at linker Lys76
# B12: MLC083: fusion polypeptide SEQ ID NO: 376 conjugated with Moiety B at 39C of Linker (conjugate)
# chain: B1 chain with R20K, A69Q, Q70C, K86Q, R180K, R202K, R218K
# modifications: Moiety B conjugated at linker Cys39
# B13: MLC081: fusion polypeptide SEQ ID NO: 374 conjugated with Moiety C at 35C of Linker (conjugate)
# chain: B1 chain with R20K, E66C, A81Q, Q82E, K86Q, R180K, R202K, R218K
# modifications: Moiety C conjugated at linker Cys35
# B14: MLC086: fusion polypeptide SEQ ID NO: 377 conjugated with Moiety C at 37C of Linker (conjugate)
# chain: B1 chain with R20K, G68C, A69Q, Q70A, K86Q, R180K, R202K, R218K
# modifications: Moiety C conjugated at linker Cys37
# B15: MLC103: fusion polypeptide SEQ ID NO: 390 conjugated with Moiety A at 71K of Linker (conjugate)
# chain: B1 chain with K86Q, Q102K
# modifications: Moiety A conjugated at linker Lys71
# Assay: Pharmacokinetic measurement in mouse, single sc dose 30 nmol/kg, plasma ELISA
# Conditions: read-out: Cmax (nmol/L), single sc dose 30 nmol/kg
# Experimental: Each fusion protein was injected subcutaneously into C57BL/6 mice (n=3/group) once and plasma samples were collected at designed time points and analyzed by ELISA method. Plasma concentrations are indicated as mean values and standard error (SEM).
# 6-8 week old male C57BL/6 mice were administrated in a single subcutaneous dose of 30 nmol/kg of the fusion protein conjugates or unconjugated fusion proteins (i.e., MLC002, MLC004, MLC005, MLC006, MLC007, MLC008, MLC009, MLC013, MLC017, MLC047, MLC074, MLC075, MLC089, MLC093, MLC003 and MLC019) (n=3/group). Plasma samples were collected pre-dose (−5 min), 0.5 hr, 1 hr, 2 hr, 4 hr, 6 hr, 8 hr, 12 hr, 24 hr, 48 hr and 72 hr after the injection. The concentrations of the fusion protein conjugates in the plasma were measured by an ELISA assay which has immunoreactivity towards both GDF15 and intact N-terminal of GLP-1. Based on the graph showing plasma concentration of each protein versus time after subcutaneous injection, the pharmacokinetic parameters (including Tmax, Cmax, T1/2, AUC) were calculated by WinNonlin software.
row,Molecule,Cmax [nmol/L]
1,B1,29.4
2,B2,102
3,B3,69.8

# Same assay, conditions: single sc dose 30 nmol/kg
Molecule,AUC0-24 h [µM·h],Terminal t1/2 [h],Tmax [h]
B1,0.4385,11.1,7.3
B2,1.8247,18.0,10.7
B3,1.2753,20.4,13.3

# Assay: Body weight and food intake in C57BL/6 mice, fusion protein conjugates, 30 nmol/kg daily 10 days
# Type: in vivo
# Conditions: not given
# Experimental: 10 week old male C57BL/6 mice were injected everyday subcutaneously with 15 nmol/kg of the fusion protein conjugates (i.e., MLC002, MLC 004, MLC 005, MLC 006, MLC 007, MLC 008, and MLC 009) for 14 days. Food intake and body weight were measured daily and five animals were used for each treatment group. Body weight (BW) was monitored for each individual animal, but food intake for each group animals was measured together. Day 1 and Day 14 are first day and last day of molecule dosage. % BW loss=100*(BW on Day n-BW on Day 1)/(BW on Day 1). Cumulative food intake on Day n represents sum of food intake from Day 1 to Day n. Data are indicated as mean values and standard error (SEM) or pooled values. Statistical analysis was performed by One-way ANOVA. Body weight reduction on Day 11 is calculated by −1*(% BW loss−% BW loss of vehicle group); Cumulative food intake reduction is calculated by −100*(cumulative food intake-cumulative food intake of vehicle)/cumulative food intake of vehicle.
# Data were calculated in the same way as described above. Day 1 and Day 10 are first day and last day of the administration.
# MLC014 was used as a negative control. MLC014 has an amino acid sequence of SEQ ID NO: 261, which contains a linker fused to the N terminal of GDF15, with a CRM conjugated to the lysine residue in the linker. Tirzepatide was also used as a control.
Molecule,Body weight reduction at 30 nmol/kg (% reduction compared to vehicle)(Day11) [%],Cumulative food intake reduction at 30 nmol/kg (% reduction compared to vehicle)(Day11) [%]
B4,22.7,38.1
B5,22.7,31.8
B6,22.4,34.8
B7,22.2,33.9
B1,25.4,52.3
B8,17.2,33.2
B9,20.7,36.2
B2,20.0,39.9
B10,23.8,40.1
B11,22.7,29.4
B12,21.6,50.5
B13,21.5,39.0
B3,20.7,46.2
B14,24.4,34.8
B15,23.3,36.2
